Molecular target: T1, TDP-43_(1–102) (human, UniProt Q13148 1-102, fluorescently labelled for MST)
T1 chain: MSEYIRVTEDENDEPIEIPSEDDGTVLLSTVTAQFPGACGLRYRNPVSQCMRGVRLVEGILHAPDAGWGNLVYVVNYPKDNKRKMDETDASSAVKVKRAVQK
Assay: MST

B1: HspA5 substrate binding domain (SBD) (domain or fragment)
chain: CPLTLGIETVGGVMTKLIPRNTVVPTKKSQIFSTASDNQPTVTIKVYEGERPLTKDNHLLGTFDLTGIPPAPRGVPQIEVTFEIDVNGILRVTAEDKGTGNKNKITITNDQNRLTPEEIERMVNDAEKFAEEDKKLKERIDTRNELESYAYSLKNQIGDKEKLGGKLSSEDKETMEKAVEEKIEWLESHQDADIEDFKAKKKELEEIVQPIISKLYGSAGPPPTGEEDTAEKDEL
For B1, the Kd was 1.44 µM.
